Reference: US20200024360A1 (Janssen / Centocor, published 2020)

Target: T1, human PSMA (prostate specific membrane antigen), full length (human, UniProt Q04609 1-750)
T1 construct: On LNCaP or C4-2B cells (endogenous) or transduced HEK293F cells; also called FOLH1_HUMAN; hPSMA
Experiment: flow cytometry cell binding assay, bispecific antibody titrated on LNCaP cells (human PSMA)
Description: PSMA×CD3 bispecific antibodies were tested for binding to PSMA positive cell lines LNCAP, human PSMA-HEK, Chimpanzee-PSMA-HEK and Cynomolgous monkey PSMA-HEK. To assess the binding capabilities of the PSMA bispecific antibodies, the cell-binding assay was utilized (described previously). Briefly, PSMA expressing tumor cells are bound by bispecific antibodies at known concentrations and the bound antibody is detected by an anti-human kappa light chain PE conjugated detection reagent (Invitrogen). The Mean Fluorescents Intensity (MFI) is the measure of bound bispecific antibody. The MFI is converted to a relative EC₅₀. EC₅₀ is a commonly used dose-response curve, where the half maximal effective concentration or the EC₅₀ point is defined as the inflection point of the curve. EC₅₀ s were determined by measuring cell bound bispecific and known concentrations. […] The dose response curves were then diluted down to that of background or no bispecific binding. The inflection point of this curve reflects the EC₅₀ point. The calculated EC₅₀ is determined by taking the ug/ml amount of bispecific antibody at the EC₅₀ point and converting it to a molarity value based on the MW of the bispecific antibody. Bispecific antibodies were normalized for protein concentration and then incubated with the same number of cells expressing either human or cyno PSMA. The MFI at each concentration was collected by flow cytometry and plotted as a function of concentration. Data was transformed via log 10 and then plotted. Nonlinear regression of binding curves was done to determine EC₅₀ s. These relative values were used for ranking PSMA binding to target cells.
PSMA×CD3 bispecific antibodies were tested for binding to PSMA positive cell line, LNCAP, to PSMA negative cell line, PC3. To assess the binding capabilities of the PSMA bispecific antibodies, the cell-binding assay was utilized (described previously). Bispecific antibodies were normalized for protein concentration and then incubated with the same number of cells expressing either human or cyno PSMA. The MFI at each concentration was collected by flow cytometry and plotted as a function of concentration.

T1 sequence (Q04609 whole entry): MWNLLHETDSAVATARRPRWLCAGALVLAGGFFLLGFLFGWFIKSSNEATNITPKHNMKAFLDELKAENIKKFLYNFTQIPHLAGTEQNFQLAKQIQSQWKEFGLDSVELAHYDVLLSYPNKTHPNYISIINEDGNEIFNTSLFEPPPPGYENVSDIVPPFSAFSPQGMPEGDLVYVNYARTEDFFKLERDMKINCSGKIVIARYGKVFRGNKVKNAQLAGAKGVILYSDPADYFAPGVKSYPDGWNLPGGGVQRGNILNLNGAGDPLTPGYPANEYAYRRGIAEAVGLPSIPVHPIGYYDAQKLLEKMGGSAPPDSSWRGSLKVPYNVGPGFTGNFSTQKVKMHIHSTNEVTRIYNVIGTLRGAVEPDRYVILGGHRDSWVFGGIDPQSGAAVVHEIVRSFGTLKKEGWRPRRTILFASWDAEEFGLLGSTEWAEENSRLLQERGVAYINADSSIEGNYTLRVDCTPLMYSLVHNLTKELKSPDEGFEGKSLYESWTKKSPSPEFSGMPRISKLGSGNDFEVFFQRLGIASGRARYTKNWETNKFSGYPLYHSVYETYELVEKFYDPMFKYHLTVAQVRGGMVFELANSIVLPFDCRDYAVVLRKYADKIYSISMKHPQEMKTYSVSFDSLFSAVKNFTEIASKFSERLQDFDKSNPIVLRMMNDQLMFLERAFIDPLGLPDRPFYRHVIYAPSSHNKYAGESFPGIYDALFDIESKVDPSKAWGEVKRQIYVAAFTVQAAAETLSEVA

Binder | binding result
PS3B60 (bispecific antibody, human IgG4 S228P, kappa, lambda, F234A L235A, IgG4 PAA; PSMA arm first, then CD3 arm (F405L, R409K); also called PSMB344 x CD3B219) heavy 1: not shown light 1: not shown heavy 2: EVQLVESGGGLVQPGGSLRLSCAASGFTFNTYAMNWVRQAPGKGLEWVARIRSKYNNYATYYAASVKGRFTISRDDSKNSLYLQMNSLKTEDTAVYYCARHGNFGNSYVSWFAYWGQGTLVTVSSASTKGPSVFPLAPCSRSTSESTAALGCLVKDYFPEPVTVSWNSGALTSGVHTFPAVLQSSGLYSLSSVVTVPSSSLGTKTYTCNVDHKPSNTKVDKRVESKYGPPCPPCPAPEAAGGPSVFLFPPKPKDTLMISRTPEVTCVVVDVSQEDPEVQFNWYVDGVEVHNAKTKPREEQFNSTYRVVSVLTVLHQDWLNGKEYKCKVSNKGLPSSIEKTISKAKGQPREPQVYTLPPSQEEMTKNQVSLTCLVKGFYPSDIAVEWESNGQPENNYKTTPPVLDSDGSFLLYSKLTVDKSRWQEGNVFSCSVMHEALHNHYTQKSLSLSLGK light 2: QTVVTQEPSLTVSPGGTVTLTCRSSTGAVTTSNYANWVQQKPGQAPRGLIGGTNKRAPGTPARFSGSLLGGKAALTLSGVQPEDEAEYYCALWYSNLWVFGGGTKLTVLGQPKAAPSVTLFPPSSEELQANKATLVCLISDFYPGAVTVAWKADSSPVKAGVETTTPSKQSNNKYAASSYLSLTPEQWKSHRSYSCQVTHEGSTVEKTVAPTECS | binds
PS3B62 (bispecific antibody, human IgG4 S228P, kappa, lambda, F234A L235A, IgG4 PAA; PSMA arm first, then CD3 arm (F405L, R409K); also called PSMB346 x CD3B219) heavy 1: not shown light 1: not shown heavy 2: EVQLVESGGGLVQPGGSLRLSCAASGFTFNTYAMNWVRQAPGKGLEWVARIRSKYNNYATYYAASVKGRFTISRDDSKNSLYLQMNSLKTEDTAVYYCARHGNFGNSYVSWFAYWGQGTLVTVSSASTKGPSVFPLAPCSRSTSESTAALGCLVKDYFPEPVTVSWNSGALTSGVHTFPAVLQSSGLYSLSSVVTVPSSSLGTKTYTCNVDHKPSNTKVDKRVESKYGPPCPPCPAPEAAGGPSVFLFPPKPKDTLMISRTPEVTCVVVDVSQEDPEVQFNWYVDGVEVHNAKTKPREEQFNSTYRVVSVLTVLHQDWLNGKEYKCKVSNKGLPSSIEKTISKAKGQPREPQVYTLPPSQEEMTKNQVSLTCLVKGFYPSDIAVEWESNGQPENNYKTTPPVLDSDGSFLLYSKLTVDKSRWQEGNVFSCSVMHEALHNHYTQKSLSLSLGK light 2: QTVVTQEPSLTVSPGGTVTLTCRSSTGAVTTSNYANWVQQKPGQAPRGLIGGTNKRAPGTPARFSGSLLGGKAALTLSGVQPEDEAEYYCALWYSNLWVFGGGTKLTVLGQPKAAPSVTLFPPSSEELQANKATLVCLISDFYPGAVTVAWKADSSPVKAGVETTTPSKQSNNKYAASSYLSLTPEQWKSHRSYSCQVTHEGSTVEKTVAPTECS | binds
PS3B64 (bispecific antibody, human IgG4 S228P, kappa, lambda, F234A L235A, IgG4 PAA; PSMA arm first, then CD3 arm (F405L, R409K); also called PSMB349 x CD3B219) heavy 1: not shown light 1: not shown heavy 2: EVQLVESGGGLVQPGGSLRLSCAASGFTFNTYAMNWVRQAPGKGLEWVARIRSKYNNYATYYAASVKGRFTISRDDSKNSLYLQMNSLKTEDTAVYYCARHGNFGNSYVSWFAYWGQGTLVTVSSASTKGPSVFPLAPCSRSTSESTAALGCLVKDYFPEPVTVSWNSGALTSGVHTFPAVLQSSGLYSLSSVVTVPSSSLGTKTYTCNVDHKPSNTKVDKRVESKYGPPCPPCPAPEAAGGPSVFLFPPKPKDTLMISRTPEVTCVVVDVSQEDPEVQFNWYVDGVEVHNAKTKPREEQFNSTYRVVSVLTVLHQDWLNGKEYKCKVSNKGLPSSIEKTISKAKGQPREPQVYTLPPSQEEMTKNQVSLTCLVKGFYPSDIAVEWESNGQPENNYKTTPPVLDSDGSFLLYSKLTVDKSRWQEGNVFSCSVMHEALHNHYTQKSLSLSLGK light 2: QTVVTQEPSLTVSPGGTVTLTCRSSTGAVTTSNYANWVQQKPGQAPRGLIGGTNKRAPGTPARFSGSLLGGKAALTLSGVQPEDEAEYYCALWYSNLWVFGGGTKLTVLGQPKAAPSVTLFPPSSEELQANKATLVCLISDFYPGAVTVAWKADSSPVKAGVETTTPSKQSNNKYAASSYLSLTPEQWKSHRSYSCQVTHEGSTVEKTVAPTECS | binds
PS3B61 (bispecific antibody, human IgG4 S228P, kappa, lambda, F234A L235A, IgG4 PAA; PSMA arm first, then CD3 arm (F405L, R409K); also called PSMB345 x CD3B219) heavy 1: not shown light 1: not shown heavy 2: EVQLVESGGGLVQPGGSLRLSCAASGFTFNTYAMNWVRQAPGKGLEWVARIRSKYNNYATYYAASVKGRFTISRDDSKNSLYLQMNSLKTEDTAVYYCARHGNFGNSYVSWFAYWGQGTLVTVSSASTKGPSVFPLAPCSRSTSESTAALGCLVKDYFPEPVTVSWNSGALTSGVHTFPAVLQSSGLYSLSSVVTVPSSSLGTKTYTCNVDHKPSNTKVDKRVESKYGPPCPPCPAPEAAGGPSVFLFPPKPKDTLMISRTPEVTCVVVDVSQEDPEVQFNWYVDGVEVHNAKTKPREEQFNSTYRVVSVLTVLHQDWLNGKEYKCKVSNKGLPSSIEKTISKAKGQPREPQVYTLPPSQEEMTKNQVSLTCLVKGFYPSDIAVEWESNGQPENNYKTTPPVLDSDGSFLLYSKLTVDKSRWQEGNVFSCSVMHEALHNHYTQKSLSLSLGK light 2: QTVVTQEPSLTVSPGGTVTLTCRSSTGAVTTSNYANWVQQKPGQAPRGLIGGTNKRAPGTPARFSGSLLGGKAALTLSGVQPEDEAEYYCALWYSNLWVFGGGTKLTVLGQPKAAPSVTLFPPSSEELQANKATLVCLISDFYPGAVTVAWKADSSPVKAGVETTTPSKQSNNKYAASSYLSLTPEQWKSHRSYSCQVTHEGSTVEKTVAPTECS | binds
PS3B70 (bispecific antibody, human IgG4 S228P, kappa, lambda, F234A L235A, IgG4 PAA; PSMA arm first, then CD3 arm (F405L, R409K); also called PSMB358 x CD3B219) heavy 1: not shown light 1: not shown heavy 2: EVQLVESGGGLVQPGGSLRLSCAASGFTFNTYAMNWVRQAPGKGLEWVARIRSKYNNYATYYAASVKGRFTISRDDSKNSLYLQMNSLKTEDTAVYYCARHGNFGNSYVSWFAYWGQGTLVTVSSASTKGPSVFPLAPCSRSTSESTAALGCLVKDYFPEPVTVSWNSGALTSGVHTFPAVLQSSGLYSLSSVVTVPSSSLGTKTYTCNVDHKPSNTKVDKRVESKYGPPCPPCPAPEAAGGPSVFLFPPKPKDTLMISRTPEVTCVVVDVSQEDPEVQFNWYVDGVEVHNAKTKPREEQFNSTYRVVSVLTVLHQDWLNGKEYKCKVSNKGLPSSIEKTISKAKGQPREPQVYTLPPSQEEMTKNQVSLTCLVKGFYPSDIAVEWESNGQPENNYKTTPPVLDSDGSFLLYSKLTVDKSRWQEGNVFSCSVMHEALHNHYTQKSLSLSLGK light 2: QTVVTQEPSLTVSPGGTVTLTCRSSTGAVTTSNYANWVQQKPGQAPRGLIGGTNKRAPGTPARFSGSLLGGKAALTLSGVQPEDEAEYYCALWYSNLWVFGGGTKLTVLGQPKAAPSVTLFPPSSEELQANKATLVCLISDFYPGAVTVAWKADSSPVKAGVETTTPSKQSNNKYAASSYLSLTPEQWKSHRSYSCQVTHEGSTVEKTVAPTECS | binds
PS3B63 (bispecific antibody, human IgG4 S228P, kappa, lambda, F234A L235A, IgG4 PAA; PSMA arm first, then CD3 arm (F405L, R409K); also called PSMB347 x CD3B219) heavy 1: not shown light 1: not shown heavy 2: EVQLVESGGGLVQPGGSLRLSCAASGFTFNTYAMNWVRQAPGKGLEWVARIRSKYNNYATYYAASVKGRFTISRDDSKNSLYLQMNSLKTEDTAVYYCARHGNFGNSYVSWFAYWGQGTLVTVSSASTKGPSVFPLAPCSRSTSESTAALGCLVKDYFPEPVTVSWNSGALTSGVHTFPAVLQSSGLYSLSSVVTVPSSSLGTKTYTCNVDHKPSNTKVDKRVESKYGPPCPPCPAPEAAGGPSVFLFPPKPKDTLMISRTPEVTCVVVDVSQEDPEVQFNWYVDGVEVHNAKTKPREEQFNSTYRVVSVLTVLHQDWLNGKEYKCKVSNKGLPSSIEKTISKAKGQPREPQVYTLPPSQEEMTKNQVSLTCLVKGFYPSDIAVEWESNGQPENNYKTTPPVLDSDGSFLLYSKLTVDKSRWQEGNVFSCSVMHEALHNHYTQKSLSLSLGK light 2: QTVVTQEPSLTVSPGGTVTLTCRSSTGAVTTSNYANWVQQKPGQAPRGLIGGTNKRAPGTPARFSGSLLGGKAALTLSGVQPEDEAEYYCALWYSNLWVFGGGTKLTVLGQPKAAPSVTLFPPSSEELQANKATLVCLISDFYPGAVTVAWKADSSPVKAGVETTTPSKQSNNKYAASSYLSLTPEQWKSHRSYSCQVTHEGSTVEKTVAPTECS | binds
